# In article PMC6993976, “Insulin BBB pharmacokinetics in young apoE male and female transgenic mice” (PLoS ONE, 2020):
# What was measured:
# [1] = test system: blood-brain barrier (BBB); assay: BBB pharmacokinetic transport of 125I-insulin, multiple-time regression analysis (Ki, Vi); format: in vivo, mouse (human E3- and E4-targeted replacement mice); settings: for Insulin transport rate Ki / Reversible vascular binding (Vi): n = 7-10 mice/group; for Ki (unidirectional influx from blood to brain) / Vi (reversible vascular binding): whole brain; for Ki (unidirectional influx from blood to brain): multiple-time regression, ± SE
# Protocol: Mice were anesthetized with an intraperitoneal injection of 0.1 mL 40% urethane to minimize pain and distress. […] We correct for the exact amount of radioactivity injected based on serum levels. […] Blood from the left carotid artery was collected between 0.5–10 min after intravenous injection. Mice were immediately decapitated and their whole brains quickly removed and weighed. The arterial blood was centrifuged at 5400g for 10 min at 4°C and serum collected. The brains were dissected into regions according to the method of [27] and weighed. The levels of radioactivity in serum (50 μL) and brain regions were counted in a gamma counter (Wizard2, Perkin Elmer, Waltham, MA). […] Expt was calculated from the formula: Exposuretime=∫0tCp(t)dt/Cp(t) (1) where Cp is the level of radioactivity (cpm) in serum at time (t). Expt corrects for the clearance of peptide from the blood. […] The influx of insulin was calculated by multiple-time regression analysis as described by Patlak, Blasberg, and Fenstermacher: Am/Cpt=Ki(∫0tCp(t)dt/Cp(t))+Vi (2) where Am is level of radioactivity (cpm) per g of brain tissue at time t, Cpt is the level of radioactivity (cpm) per mL arterial serum at time t, Ki (μL/g-min) is the unidirectional solute influx from blood to brain, and Vi (μL/g) is the level of rapid and reversible binding for the brain vasculature. The brain/serum (B/S) ratios for insulin were corrected for vascular space by subtracting the corresponding ratio for albumin, yielding a delta B/S ratio. The linear portion of the relation between the delta B/S ratio versus Expt was used to calculate the Ki (μL/g-min) with its standard error term, and the y-intercept determined as representation of the Vi (μL/g) for each brain region. For whole brain, the weights and cpm of all individual brain regions except for the olfactory bulb were summed to calculate the B/S ratio. […] All anesthetized mice were killed by decapitation at the end of the study.
# Regression analysis and other statistical analyses were performed with the use of Prism 8.0 (GraphPad Software Inc., San Diego, CA, USA). Brain weight means are reported with their standard error terms and compared by two-way analysis of variance (ANOVA) followed by Sidak’s post hoc test to determine differences due to genotype or sex. […] For pharmacokinetic studies (multiple-time regression analysis), the slope of the linear regression lines (Ki), reported with their correlation coefficients (r), and y-intercepts (Vi) were compared statistically with the Prism 8.0 software package, as described.
# [2] = set-up: species or system mouse (human E3- and E4-targeted replacement mice); settings: in vivo
# Protocol: Mice were anesthetized with an intraperitoneal injection of 0.1 mL 40% urethane to minimize pain and distress. […] We correct for the exact amount of radioactivity injected based on serum levels. […] Blood from the left carotid artery was collected between 0.5–10 min after intravenous injection. Mice were immediately decapitated and their whole brains quickly removed and weighed. The arterial blood was centrifuged at 5400g for 10 min at 4°C and serum collected. The brains were dissected into regions according to the method of [27] and weighed. The levels of radioactivity in serum (50 μL) and brain regions were counted in a gamma counter (Wizard2, Perkin Elmer, Waltham, MA). […] Expt was calculated from the formula: Exposuretime=∫0tCp(t)dt/Cp(t) (1) where Cp is the level of radioactivity (cpm) in serum at time (t). Expt corrects for the clearance of peptide from the blood. […] The influx of insulin was calculated by multiple-time regression analysis as described by Patlak, Blasberg, and Fenstermacher: Am/Cpt=Ki(∫0tCp(t)dt/Cp(t))+Vi (2) where Am is level of radioactivity (cpm) per g of brain tissue at time t, Cpt is the level of radioactivity (cpm) per mL arterial serum at time t, Ki (μL/g-min) is the unidirectional solute influx from blood to brain, and Vi (μL/g) is the level of rapid and reversible binding for the brain vasculature. […]
# [3] = test system: blood-brain barrier (BBB); settings: in vivo; cited from earlier work
# Text: Our studies are designed to investigate the transfer of human ^125I-insulin from the periphery to the CNS. Rat and human insulin are transported across the BBB at similar rates and are both saturable by excess respective peptide. […] We used the well-described multiple-time regression analysis technique first described by Patlak, Blasberg, and Fenstermacher. This an ...
# [4] = test system: blood-brain barrier (BBB); set-up: method as in PMID 30044494; settings: in vivo; cited from earlier work
substance,measurement,setting,value
125I-insulin: Human insulin (Sigma-Aldrich) radioactively labeled with Na125I by the chloramine-T method,Insulin transport rate Ki,"[1]; E3 Female, Cerebellum",1.189 µL/g/min
same,Reversible vascular binding (Vi),"[1]; E3 Female, Cerebellum",8.36 µL/g
same,Insulin transport rate Ki,"[1]; E3 Female, Frontal Cortex",0.796 µL/g/min
same,Reversible vascular binding (Vi),"[1]; E3 Female, Frontal Cortex",4.65 µL/g
same,Insulin transport rate Ki,"[1]; E3 Female, Hippocampus, ns = non-significant transport",ns
same,Insulin transport rate Ki,"[1]; E3 Female, Hypothalamus",1.541 µL/g/min
same,Reversible vascular binding (Vi),"[1]; E3 Male, Parietal Cortex",4.17 µL/g
same,Insulin transport rate Ki,"[1]; E3 Male, Pons/Medulla",0.739 µL/g/min
same,Insulin transport rate Ki,"[1]; E3 Male, Striatum, ns = non-significant transport",ns
same,Insulin transport rate Ki,"[1]; E3 Male, Thalamus, ns = non-significant transport",ns
same,Insulin transport rate Ki,"[1]; E4 Female, Cerebellum",2.110 µL/g/min
same,Reversible vascular binding (Vi),"[1]; E4 Female, Cerebellum",8.91 µL/g
same,Insulin transport rate Ki,"[1]; E4 Female, Frontal Cortex",0.720 µL/g/min
same,Reversible vascular binding (Vi),"[1]; E4 Female, Olfactory Bulb",11.71 µL/g
same,Insulin transport rate Ki,"[1]; E4 Female, Parietal Cortex",0.859 µL/g/min
same,Reversible vascular binding (Vi),"[1]; E4 Female, Parietal Cortex",3.31 µL/g
same,Insulin transport rate Ki,"[1]; E4 Female, Pons/Medulla",1.111 µL/g/min
same,Insulin transport rate Ki,"[1]; E4 Female, Striatum, ns = non-significant transport",ns
same,Insulin transport rate Ki,"[1]; E4 Female, Thalamus",0.634 µL/g/min
same,Insulin transport rate Ki,"[1]; E4 Male, Cerebellum, ns = non-significant transport",ns
same,Insulin transport rate Ki,"[1]; E4 Male, Frontal Cortex",1.023 µL/g/min
same,Reversible vascular binding (Vi),"[1]; E4 Male, Frontal Cortex",5.90 µL/g
same,Insulin transport rate Ki,"[1]; E4 Male, Hippocampus, ns = non-significant transport",ns
same,Insulin transport rate Ki,"[1]; E4 Male, Hypothalamus",2.272 µL/g/min
same,Reversible vascular binding (Vi),"[1]; E4 Male, Hypothalamus",5.63 µL/g
same,Insulin transport rate Ki,"[1]; E4 Male, Midbrain",0.887 µL/g/min
same,Reversible vascular binding (Vi),"[1]; E4 Male, Midbrain",6.38 µL/g
same,Insulin transport rate Ki,"[1]; E4 Male, Occipital Cortex",0.793 µL/g/min
same,Reversible vascular binding (Vi),"[1]; E4 Male, Occipital Cortex",6.71 µL/g
same,Insulin transport rate Ki,"[1]; E4 Male, Olfactory Bulb",1.712 µL/g/min
same,Reversible vascular binding (Vi),"[1]; E4 Male, Olfactory Bulb",13.31 µL/g
same,Insulin transport rate Ki,"[1]; E4 Male, Parietal Cortex",0.920 µL/g/min
same,Reversible vascular binding (Vi),"[1]; E4 Male, Parietal Cortex",4.74 µL/g
same,Insulin transport rate Ki,"[1]; E4 Male, Pons/Medulla, ns = non-significant transport",ns
same,Insulin transport rate Ki,"[1]; E4 Male, Striatum, ns = non-significant transport",ns
same,Insulin transport rate Ki,"[1]; E4 Male, Thalamus",1.203 µL/g/min
same,Reversible vascular binding (Vi),"[1]; E4 Male, Thalamus",4.56 µL/g
same,Ki (unidirectional influx from blood to brain),"[1]; Female E3, iv, albumin-corrected",1.128 ± 0.32 µL/g/min
same,Vi (reversible vascular binding),"[1]; Female E3, y-intercept of multiple-time regression",4.41 ± 2.31 µL/g
same,Ki (unidirectional influx from blood to brain),[1]; Female E4,1.033 ± 0.28 µL/g/min
same,Vi (reversible vascular binding),"[1]; Female E4, y-intercept of multiple-time regression",7.17 ± 2.07 µL/g
same,Vi (reversible vascular binding),"[1]; Female, genotypes Combined",7.84 ± 1.26 µL/g
same,Ki (unidirectional influx from blood to brain),"[1]; Female, genotypes Combined",0.691 ± 0.16 µL/g/min
same,Vi (reversible vascular binding),"[1]; Male E3, y-intercept of multiple-time regression",7.17 ± 0.95 µL/g
same,Ki (unidirectional influx from blood to brain),[1]; Male E4,0.781 ± 0.32 µL/g/min
same,Vi (reversible vascular binding),"[1]; Male E4, y-intercept of multiple-time regression",8.23 ± 2.13 µL/g
same,Vi (reversible vascular binding),"[1]; Male, genotypes Combined",7.88 ± 1.09 µL/g
same,Ki (unidirectional influx from blood to brain),"[1]; Male, genotypes Combined",0.803 ± 0.17 µL/g/min
same,"Serum clearance rate, slower in males compared to females",[2],> 2 fold
same,"Whole brain transport rate, average previously observed",[3],0.71 ± 0.17 µL/g/min
same,Distribution between brain capillary and brain parenchyma,[4],enters the brain parenchyma
